The text below walks through data of publication PMC11847324, “A communication hub for phosphoregulation of kinetochore-microtubule attachment” (Current biology : CB, 2024).

Assay [1] deals with Bodipy-FL Mps1(137–171) (S. cerevisiae). The assay can be described thus: fluorescence polarisation; direct titration: 2-fold serial dilutions of Ndc80c^dwarf (from 860 uM stock) added to 20 nM (final) Bodipy-FL peptide; 20 mM Hepes pH 7.2, 150 mM NaCl, 2 mM TCEP; 25 °C; triplicate. In general terms: Fluorescence polarisation rises when a labelled molecule tumbles more slowly, as on binding a larger partner.

Assay [2] deals with Ndc80c^dwarf. Put plainly: Fluorescence polarization competition, reporter Bodipy-FL Mps1(137–171). The note with it: direct titration (Figure 3A) and competition with Bodipy-FL Mps1(137–171) (Figure 3B). Type of assay: binding, S. cerevisiae. From the text: We measured by fluorescence polarization the affinity of Ndc80^dwarf, a shortened version of Ndc80c[51], for a peptide comprising Mps1 residues 137–171, plus a C-terminal cysteine for labeling. We labeled the peptide with the Bodipy fluorophore and determined fluorescence anisotropy as a function of Ndc80c^dwarf concentration (Figure 3A). We then used unlabeled wild-type and mutant peptides in a competition format, at a fixed Ndc80c^dwarf concentration (Figures 3B,C). The mutant peptides corresponded to mutations characterized in one of the accompanying papers. […] Mutating either the basic residues or the hydrophobic residues in the first part of the consensus motif or the conserved arginine at the end of the second part lowered affinity (raised the Ki) by roughly two logs; mutating both the final arginine and the hydrophobic residues eliminated any detectable competition.
Figure 3. Fluorescence polarization measurements of Ndc80c^dwarf binding peptides from the N-terminal extensions of Mps1 and Ipl1. (A) Polarization of fluorescence from 20 nM Bodipy-FL Mps1(137–171) (Mps1 residues 137–171 plus a C-terminal cysteine modified with Bodipy-FL -- see Methods) and Bodipy-FL Ipl1 (26–39;45–59) as a function of Ndc80c^dwarf concentration. (B) Competition binding experiment: unlabeled competitor peptides (see figure annotation) were added in twofold serial dilutions to Bodipy-FL Mps1(137–171) and Ndc80c^dwarf at final concentrations of 20 nM and 500 nM respectively. Loss of polarization indicates displacement of bound Bodipy-FL Mps1(137–171) by the competitor. (C) As in (B), with competitor Mps1(137–171) peptides containing mutations that reduce affinity for Ndc80c[40]. (D) Polarization of fluorescence from 20 nM Bodipy-FL Mps1(137–171) as a function of the concentration of Ndc80c^dwarf bearing mutations in Nuf2 that interfere with its Mps1 interaction in cells. (E) As in (B), but with 20 nM Bodipy-FL Ipl1 (26–39;45–59) as the fluorescent reporter and 27μM Ndc80c^dwarf. […] For the Ipl1 peptide, the second copy of the motif, not used for the fluorescence polarization experiments, is shown in the bottom line.
Mps1 (137–171), Ipl1 (26–39;45–59), and Dam1 (254–270;290–305) peptides with added C-terminal cysteines, were synthesized by the Tufts University Core Facility. […] Fluorescence polarization was measured at 25°C with an Envision plate reader (Perkin Elmer) equipped with a filter set optimized for fluorescence polarization of FITC, which has the same absorption and emission spectra as those of Bodipy FL. […] Fluorescence polarization was measured in triplicate. […] An equal volume of a buffer-matched solution containing 40 nM Bodipy-FL labelled peptide and 1 μM Ndc80c^dwarf was added to each of the dilutions, and fluorescence polarization was measured in triplicate. […]

The target of a further assay is T1, Ipl1 (Saccharomyces cerevisiae (strain ATCC …, UniProt P38991)).
T1 chain: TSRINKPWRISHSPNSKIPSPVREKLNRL
Put plainly: FP direct, Bodipy peptide, Ndc80c dwarf.

A further assay deals with T2, Mps1 (Saccharomyces cerevisiae (strain ATCC …, UniProt P54199)).
T2 chain: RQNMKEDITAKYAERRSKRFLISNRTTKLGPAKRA
Put plainly: FP direct, Bodipy peptide, Ndc80c dwarf.

For the next assay, the target named is T3, Bodipy-FL Mps1(137–171).
T3 chain: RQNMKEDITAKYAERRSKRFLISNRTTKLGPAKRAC
The assay can be described thus: fluorescence polarization. The note with it: chain shown with the change; 20 nM Bodipy-FL Mps1(137–171); Ndc80c^dwarf mutant titrated.

In assay [3] the target is T4, Ndc80c^dwarf (S. cerevisiae, UniProt P40460 1-691; Q04477 1-213; P40014 1-221).
T4 chain 1: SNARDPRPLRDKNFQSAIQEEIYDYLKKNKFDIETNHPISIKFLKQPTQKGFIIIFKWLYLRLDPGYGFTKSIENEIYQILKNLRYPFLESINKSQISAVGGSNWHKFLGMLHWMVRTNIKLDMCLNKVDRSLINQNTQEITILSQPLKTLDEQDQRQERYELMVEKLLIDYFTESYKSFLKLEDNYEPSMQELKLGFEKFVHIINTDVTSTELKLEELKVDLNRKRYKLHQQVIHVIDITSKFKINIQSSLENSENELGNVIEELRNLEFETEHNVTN
T4 chain 2: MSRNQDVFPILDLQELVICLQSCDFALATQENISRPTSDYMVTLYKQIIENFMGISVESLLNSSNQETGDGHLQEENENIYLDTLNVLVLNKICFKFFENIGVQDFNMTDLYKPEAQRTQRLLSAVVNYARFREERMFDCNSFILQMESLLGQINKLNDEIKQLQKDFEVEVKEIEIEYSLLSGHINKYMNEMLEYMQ
T4 chain 3: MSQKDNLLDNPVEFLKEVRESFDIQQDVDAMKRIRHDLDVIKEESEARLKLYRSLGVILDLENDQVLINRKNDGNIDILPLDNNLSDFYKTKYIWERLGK
T4 chain 4: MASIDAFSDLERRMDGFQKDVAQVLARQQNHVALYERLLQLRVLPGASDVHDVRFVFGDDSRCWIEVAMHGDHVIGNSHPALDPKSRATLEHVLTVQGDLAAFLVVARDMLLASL
The assay can be described thus: FP.

Assay [4] has as its target T4, Ndc80c^dwarf. The assay can be described thus: fluorescence polarisation; competition: 2-fold serial dilutions of unlabeled peptide (2 mM stock) mixed with an equal volume giving 20 nM Bodipy-FL Mps1(137–171) and 500 nM Ndc80c^dwarf; 20 mM Tris pH 7.2, 100 mM NaCl, 2 mM TCEP; 25 °C; triplicate.
Assay [5] has as its target T5, Ndc80c^dwarf, P40460;Q04477;P40014.
T5 chain 1: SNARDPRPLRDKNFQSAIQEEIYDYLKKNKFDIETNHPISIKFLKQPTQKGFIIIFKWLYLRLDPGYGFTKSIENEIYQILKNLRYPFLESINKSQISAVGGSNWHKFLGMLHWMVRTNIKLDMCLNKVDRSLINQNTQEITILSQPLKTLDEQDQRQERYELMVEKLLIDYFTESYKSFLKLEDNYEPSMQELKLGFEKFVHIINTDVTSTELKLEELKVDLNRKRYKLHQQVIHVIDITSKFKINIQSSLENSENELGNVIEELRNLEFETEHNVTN
T5 chain 2: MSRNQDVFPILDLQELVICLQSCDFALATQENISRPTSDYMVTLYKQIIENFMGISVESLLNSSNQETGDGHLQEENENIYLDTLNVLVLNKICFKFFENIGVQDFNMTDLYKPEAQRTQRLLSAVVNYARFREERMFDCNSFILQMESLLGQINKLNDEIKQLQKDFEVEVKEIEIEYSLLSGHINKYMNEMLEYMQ
T5 chain 3: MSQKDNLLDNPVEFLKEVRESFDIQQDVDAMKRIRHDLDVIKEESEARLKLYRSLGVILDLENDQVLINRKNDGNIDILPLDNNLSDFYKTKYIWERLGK
T5 chain 4: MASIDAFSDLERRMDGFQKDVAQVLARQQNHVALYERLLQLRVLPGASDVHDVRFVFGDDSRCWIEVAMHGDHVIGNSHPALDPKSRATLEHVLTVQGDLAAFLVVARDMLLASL
The assay can be described thus: fluorescence polarization competition. The note with it: chain shown with the change; point at the highest competitor concentration (about 1e3 µM); 20 nM Bodipy-FL Mps1(137–171), 500 nM Ndc80c^dwarf; lower polarization = more displacement of the …; parent: est. 41; read off a plot.

No end group written: not given here. *: point of attachment. BODIPYFLEthylmaleimide = Cc1cc(C)n2c1C=C1C=CC(CCC(=O)NCCN3C(=O)CC(*)C3=O)=[N+]1[B-]2(F)F

“Ndc80c^dwarf bearing the Nuf2 F8A P9A mutations (from UniProt P40460 1-691; Q04477 1-213; P40014 1-221) (complex)”: the loss of affinity against wild-type Ndc80c^dwarf (logs) in assay [1] turned out to be 2 logs. On to “Ndc80c^dwarf bearing the Nuf2 N128A mutation (from UniProt P40460 1-691; Q04477 1-213; P40014 1-221) (complex)”, for which the loss of affinity against wild-type Ndc80c^dwarf (logs) in assay [1] was 2 logs. In the case of “RRKSILHTIRNSIASGARISLGSGAARVVNGPVTC [Dam1 (254–270;290–305)]”, in the assay on Ndc80c^dwarf [2], the “relative affinity of peptides for Ndc80c^dwarf (comparison in words)” value is reported as “nearly the same”. Turning to “TSRINKPWRISHSPNSKIPSPVREKLNRLC [Ipl1 (26–39;45–59)]”, in the assay on Ndc80c^dwarf [2], the “relative affinity of peptides for Ndc80c^dwarf (comparison in words)” value was “bound more weakly than those from Dam1 and Mps1”.

B1: Ndc80-Nuf2 (protein)
chain 1: MSRNQDVFPILDLQELVICLQSCDFALATQENISRPTSDYMVTLYKQIIENFMGISVESLLNSSNQETGDGHLQEENENIYLDTLNVLVLNKICFKFFENIGVQDFNMTDLYKPEAQRTQRLLSAVVNYARFREERMFDCNSFILQMESLLGQ
chain 2: RDPRPLRDKNFQSAIQEEIYDYLKKNKFDIETNHPISIKFLKQPTQKGFIIIFKWLYLRLDPGYGFTKSIENEIYQILKNLRYPFLESINKSQISAVGGSNWHKFLGMLHWMVRTNIKLDMCLNKVDRSLINQNTQEITILSQPLKTLDEQDQRQERYELMVEKLLIDYFTESYKSFLKLEDNYEPSMQELKLGFEKFVHIINTD
As a reminder, the Kd is the free concentration of one partner at which half of the binding sites on the other are occupied at equilibrium, for simple one-to-one binding. Read a low Kd as a tighter complex. For the molecule B1, the Kd was 18.8 µM with Ipl1 and 0.28 µM with Mps1.

B2: Ndc80c^dwarf, P40460;Q04477;P40014 Nuf2:N128A (protein)
chain 1: SNARDPRPLRDKNFQSAIQEEIYDYLKKNKFDIETNHPISIKFLKQPTQKGFIIIFKWLYLRLDPGYGFTKSIENEIYQILKNLRYPFLESINKSQISAVGGSNWHKFLGMLHWMVRTNIKLDMCLNKVDRSLINQNTQEITILSQPLKTLDEQDQRQERYELMVEKLLIDYFTESYKSFLKLEDNYEPSMQELKLGFEKFVHIINTDVTSTELKLEELKVDLNRKRYKLHQQVIHVIDITSKFKINIQSSLENSENELGNVIEELRNLEFETEHNVTN
chain 2: MSRNQDVFPILDLQELVICLQSCDFALATQENISRPTSDYMVTLYKQIIENFMGISVESLLNSSNQETGDGHLQEENENIYLDTLNVLVLNKICFKFFENIGVQDFNMTDLYKPEAQRTQRLLSAVVAYARFREERMFDCNSFILQMESLLGQINKLNDEIKQLQKDFEVEVKEIEIEYSLLSGHINKYMNEMLEYMQ
chain 3: MSQKDNLLDNPVEFLKEVRESFDIQQDVDAMKRIRHDLDVIKEESEARLKLYRSLGVILDLENDQVLINRKNDGNIDILPLDNNLSDFYKTKYIWERLGK
chain 4: MASIDAFSDLERRMDGFQKDVAQVLARQQNHVALYERLLQLRVLPGASDVHDVRFVFGDDSRCWIEVAMHGDHVIGNSHPALDPKSRATLEHVLTVQGDLAAFLVVARDMLLASL
B2 displayed a dissociation constant Kd with Bodipy-FL Mps1(137–171) of 7.4 µM.

B3: Ndc80c^dwarf, P40460;Q04477;P40014 Nuf2:F8A; Nuf2:P9A (protein)
chain 1: SNARDPRPLRDKNFQSAIQEEIYDYLKKNKFDIETNHPISIKFLKQPTQKGFIIIFKWLYLRLDPGYGFTKSIENEIYQILKNLRYPFLESINKSQISAVGGSNWHKFLGMLHWMVRTNIKLDMCLNKVDRSLINQNTQEITILSQPLKTLDEQDQRQERYELMVEKLLIDYFTESYKSFLKLEDNYEPSMQELKLGFEKFVHIINTDVTSTELKLEELKVDLNRKRYKLHQQVIHVIDITSKFKINIQSSLENSENELGNVIEELRNLEFETEHNVTN
chain 2: MSRNQDVAAILDLQELVICLQSCDFALATQENISRPTSDYMVTLYKQIIENFMGISVESLLNSSNQETGDGHLQEENENIYLDTLNVLVLNKICFKFFENIGVQDFNMTDLYKPEAQRTQRLLSAVVNYARFREERMFDCNSFILQMESLLGQINKLNDEIKQLQKDFEVEVKEIEIEYSLLSGHINKYMNEMLEYMQ
chain 3: MSQKDNLLDNPVEFLKEVRESFDIQQDVDAMKRIRHDLDVIKEESEARLKLYRSLGVILDLENDQVLINRKNDGNIDILPLDNNLSDFYKTKYIWERLGK
chain 4: MASIDAFSDLERRMDGFQKDVAQVLARQQNHVALYERLLQLRVLPGASDVHDVRFVFGDDSRCWIEVAMHGDHVIGNSHPALDPKSRATLEHVLTVQGDLAAFLVVARDMLLASL
In the case of B3, the Kd in the assay with Bodipy-FL Mps1(137–171) was found to be 12.5 µM. In the assay with Ndc80c^dwarf [3], RQNMKEDITAKYAERRSKRFLISNRTTKLGPAKRAC(BODIPYFLEthylmaleimide) [Bodipy-FL Mps1(137–171)] gave a Kd of 0.28 µM.

RQNMKEDITAKYAEDDSKDFLISNRTTKLGPAKRAC [Mps1 R151D R152D R155D peptide (137–171)] yielded a rise of Ki against the wild-type Mps1 peptide (logs) with Ndc80c^dwarf [4] of 2 logs. Consider RQNMKEDITAKYAERRSKRDAISNRTTKLGPAKSAC [Mps1 (137–171) peptide, unlabeled F156D; L157A; R170S], for which, in assay [5], the response came to 76 mP. On to RQNMKEDITAKYAERRSKRFLISNRTTKLGPAKSAC [Mps1 R170S peptide (137–171)], for which the rise of Ki against the wild-type Mps1 peptide (logs) with Ndc80c^dwarf [4] is 2 logs. In the assay with Ndc80c^dwarf [4], RQNMKEDITAKYAERRSKRDAISNRTTKLGPAKRAC [Mps1 F156D L157A peptide (137–171)] came in with a rise of Ki against the wild-type Mps1 peptide (logs) of 2 logs.
